Test results: patent publication US20100330078A1 (Pfizer, published 2010)

How the values were obtained:
[1] = biological target: T1, human integrin α5β1 on cells (endogenous, HUVEC; tumor or endothelial-expressed) (human, UniProt P08648 42-1049; P05556 21-798); experiment: cell-based or functional assay
[2] = biological target: T1, human integrin α5β1 on cells …; experiment: cell-based or functional assay; remark: listed apart in the source
[3] = biological target: T1, human integrin α5β1 on cells …; experiment: FACS on HUVEC (endogenous human α5β1), GeoMean against mAb concentration, fitted; experiment 030207
[4] = biological target: T1, human integrin α5β1 on cells …; experiment: FACS on HUVEC (endogenous human α5β1), GeoMean against mAb concentration, fitted; experiment 031307
Method: The 22B5/DLE, 24C7/DLE, 1 D9/DLE, and 2D2/DLE antibodies were tested for their binding affinity to cell surface integrin α5 using a FACS assay, employing endogenous human integrin α5β1 expressing cells (HUVEC). Briefly, the cells were detached using trypsin-EDTA and washed with cold PBS. After being aliquoted into 96-well plates, the cells were blocked by serum and incubated with different concentrations of specific mAb for 1 hour at 4° C. Subsequently, the cells were washed and incubated with an anti-human κ secondary antibody conjugated with the R-PE fluorophore and analyzed using a FACSCalibur flow cytometer. 10,000 events were collected for each sample without applying any gating. For KD determination, the Geometric Mean of each sample histogram was calculated and plotted as a function of the mAb concentration. KD was calculated after fitting to a two-state equilibrium model.

T1 sequence (P08648 42-1049, chain 1 of 2): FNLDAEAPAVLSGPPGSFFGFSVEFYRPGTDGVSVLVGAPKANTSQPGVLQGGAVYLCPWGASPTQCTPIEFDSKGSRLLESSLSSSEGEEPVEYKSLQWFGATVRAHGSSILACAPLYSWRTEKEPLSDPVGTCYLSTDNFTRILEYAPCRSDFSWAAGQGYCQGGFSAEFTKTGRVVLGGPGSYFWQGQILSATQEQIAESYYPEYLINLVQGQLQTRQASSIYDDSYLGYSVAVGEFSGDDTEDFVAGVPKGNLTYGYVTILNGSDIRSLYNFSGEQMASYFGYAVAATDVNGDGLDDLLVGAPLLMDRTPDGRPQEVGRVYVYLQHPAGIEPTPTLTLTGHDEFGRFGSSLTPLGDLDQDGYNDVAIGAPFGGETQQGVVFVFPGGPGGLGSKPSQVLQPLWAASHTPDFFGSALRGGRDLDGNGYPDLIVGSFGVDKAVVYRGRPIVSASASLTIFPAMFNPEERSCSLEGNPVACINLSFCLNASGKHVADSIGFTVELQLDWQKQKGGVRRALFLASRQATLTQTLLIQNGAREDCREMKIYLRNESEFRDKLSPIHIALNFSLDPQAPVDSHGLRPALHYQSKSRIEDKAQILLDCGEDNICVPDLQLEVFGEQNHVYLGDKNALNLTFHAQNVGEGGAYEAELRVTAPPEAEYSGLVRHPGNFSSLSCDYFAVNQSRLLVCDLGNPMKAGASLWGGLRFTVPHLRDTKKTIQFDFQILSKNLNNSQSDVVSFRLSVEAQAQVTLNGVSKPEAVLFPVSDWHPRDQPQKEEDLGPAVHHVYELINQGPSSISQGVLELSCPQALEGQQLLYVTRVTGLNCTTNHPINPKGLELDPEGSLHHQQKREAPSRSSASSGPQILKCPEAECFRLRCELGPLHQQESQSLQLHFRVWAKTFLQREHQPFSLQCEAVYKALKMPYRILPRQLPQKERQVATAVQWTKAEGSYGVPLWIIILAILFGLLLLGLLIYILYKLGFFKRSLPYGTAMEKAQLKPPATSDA
T1 sequence (P05556 21-798, chain 2 of 2): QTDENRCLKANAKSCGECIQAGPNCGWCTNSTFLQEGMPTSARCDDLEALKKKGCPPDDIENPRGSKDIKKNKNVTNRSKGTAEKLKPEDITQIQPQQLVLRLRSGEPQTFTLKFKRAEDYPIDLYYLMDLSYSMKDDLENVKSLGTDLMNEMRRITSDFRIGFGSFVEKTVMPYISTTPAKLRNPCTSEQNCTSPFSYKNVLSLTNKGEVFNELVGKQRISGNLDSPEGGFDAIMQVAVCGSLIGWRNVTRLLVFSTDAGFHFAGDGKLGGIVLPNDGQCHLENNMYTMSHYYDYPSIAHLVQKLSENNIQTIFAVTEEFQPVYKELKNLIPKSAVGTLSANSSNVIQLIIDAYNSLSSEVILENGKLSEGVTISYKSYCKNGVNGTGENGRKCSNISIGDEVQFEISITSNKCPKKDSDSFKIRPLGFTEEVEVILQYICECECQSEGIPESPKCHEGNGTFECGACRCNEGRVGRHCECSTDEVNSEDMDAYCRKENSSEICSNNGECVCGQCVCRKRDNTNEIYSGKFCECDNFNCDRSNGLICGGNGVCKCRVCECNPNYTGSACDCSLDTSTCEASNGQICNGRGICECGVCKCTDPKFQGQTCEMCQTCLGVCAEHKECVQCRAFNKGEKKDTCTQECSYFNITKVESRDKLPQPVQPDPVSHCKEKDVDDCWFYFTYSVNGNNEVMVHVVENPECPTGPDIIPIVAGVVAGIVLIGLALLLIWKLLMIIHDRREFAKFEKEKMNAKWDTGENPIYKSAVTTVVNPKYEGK

Binder	ADCC EC50, human PBMCs [1] [nM]	IC50, inhibition of HUVEC adhesion to fibronectin (fluorescence 485/535 nM) [2] [nM]	Kd [3] [nM]	Kd [4] [nM]
1D9/DLE (antibody, V domains shown, also called 1D9 IgG1 DLE; 1D9 G1 DLE) VH: QVQLVESGGGVVQPGRSLRLSCAASGFPFSTYAMHWVRQAPGKGLEWVAVISYDGSNKYYADSVKGRFTISRDNSKNTLYLQMNSLRAEDTAVYYCARESPPIYYYYGMDVWGQGTTVTVSS VL: EIVLTQSPATLSLSPGERATLSCRASQSVSSYLAWYQQKPGQAPRLLIYDASNRATGIPARFSGSGSGTDFTLTISSLEPEDFAVYYCQQRSNWPRTFGQGTKVEIK			1.68	1.49
1D9 (antibody, IgG1, V domains shown, also called 1D9 G1; I D9) VH: QVQLVESGGGVVQPGRSLRLSCAASGFPFSTYAMHWVRQAPGKGLEWVAVISYDGSNKYYADSVKGRFTISRDNSKNTLYLQMNSLRAEDTAVYYCARESPPIYYYYGMDVWGQGTTVTVSS VL: EIVLTQSPATLSLSPGERATLSCRASQSVSSYLAWYQQKPGQAPRLLIYDASNRATGIPARFSGSGSGTDFTLTISSLEPEDFAVYYCQQRSNWPRTFGQGTKVEIK			1.69	
2D2/DLE (antibody, IgG1, V domains shown, Constant regions: see the note of 1D9/DLE; also called 2D2 IgG1 DLE) VH: QVQLVESGGGVVQPGRSLRLSCAASGFTFSSYAMHWVRQAPGKGLEWVAVISFDGSTKYYADSVKGRFTISRDNSKNTLDLQMNSLRAEDTALYYCAREYWGTYYYGTDVWGQGTTVIVSS VL: EIVLTQSPATLSLSPGERATLSCRASQSVNSYLAWYQQKPGQAPRLLIYDASNRATGIPARFSGSGSGTDFTLTISSLEPEDFAVYYCQQRSNWPRTFGQGTKVEIK			8.78	7.32

Now from value to binder:

ADCC EC50, human PBMCs [1] [nM]	IC50, inhibition of HUVEC adhesion to fibronectin (fluorescence 485/535 nM) [2] [nM]	Kd [3] [nM]	Kd [4] [nM]	Binder
0.23	0.43	1.95		22B5 wild type IgG1 (antibody, V domains shown, Human IgG1 with wild type Fc (no DLE mutations); also called 22B5 wt IgG1; wt 22B5 IgG1) VH: QLQLQESGPGLVKPSETLSLTCTVSGGSISSSSYWGWIRQPPGKGLEWIGSIYYSGRNYNNPSLKSRVTISVDTSKNQFSLKLSSVTAADTAVYYCARHYYGSGSSYYYYDLDVWGQGTTVTVSS VL: EIVLTQSPATLSLSPGERATLSCRASQSVSSYLAWYQQKPGQAPRLLIYDASNRATGIPARFSGSGSGTDFTLTISSLEPEDFAVYYCQQRSNWPLTFGGGTKVEIK
	0.57			22B5 IgG4 (antibody, V domains shown) VH: QLQLQESGPGLVKPSETLSLTCTVSGGSISSSSYWGWIRQPPGKGLEWIGSIYYSGRNYNNPSLKSRVTISVDTSKNQFSLKLSSVTAADTAVYYCARHYYGSGSSYYYYDLDVWGQGTTVTVSS VL: EIVLTQSPATLSLSPGERATLSCRASQSVSSYLAWYQQKPGQAPRLLIYDASNRATGIPARFSGSGSGTDFTLTISSLEPEDFAVYYCQQRSNWPLTFGGGTKVEIK
	0.37			22B5 IgG2 (antibody, V domains shown) VH: QLQLQESGPGLVKPSETLSLTCTVSGGSISSSSYWGWIRQPPGKGLEWIGSIYYSGRNYNNPSLKSRVTISVDTSKNQFSLKLSSVTAADTAVYYCARHYYGSGSSYYYYDLDVWGQGTTVTVSS VL: EIVLTQSPATLSLSPGERATLSCRASQSVSSYLAWYQQKPGQAPRLLIYDASNRATGIPARFSGSGSGTDFTLTISSLEPEDFAVYYCQQRSNWPLTFGGGTKVEIK
